Assay results from article PMC9820559, “Investigation of the Fuzzy Complex between RSV Nucleoprotein and Phosphoprotein to Optimize an Inhibition Assay by Fluorescence Polarization” (International Journal of Molecular Sciences, 2022).
Ends that are not written are not given here. Peptide text beside a SMILES is read from it. * marks the point of attachment. dicyano BODIPY FL = CC1=CC(C)=[N+]2C1=Cc1ccc(CCC(=O)*)n1[B-]2(C#N)C#N; FITC = O=C1OC2(c3ccc(O)cc3Oc3cc(O)ccc32)c2ccc(NC(=S)*)cc21; X1 = Cc1cc(C)n2c1C=C1C=CC(CCC(=O)*)=[N+]1[B-]2(C#N)C#N

Tests used:
RSV N-RNA complex [1] = target: T1, RSV N-RNA complex (Human respiratory syncytial virus A, UniProt P03418); test: biochemical; type: binding
T1 construct: Full-length N was produced by co-expression with the C-terminal domain of RSV P protein in E. coli BL21(DE3); made in house; host or cells: E. coli BL21(DE3), co-transformed with pET-N and pGEX-P(161–241)
Protocol: We carried out FP measurements using the fluorescent F11 peptide and N-RNA complex. […] No salt was added to promote high affinity.
We first measured binding of Fn peptides (200 nM) to N-RNA in Tris buffer by FP (Figure 5A,B). […] We fitted the data with ΔFPmax and Kd as parameters.
We therefore measured fluorescein FP in the presence of N-RNA. […] To test if fluorescein binds to the P-binding site on the N-RNA, we carried out a competition experiment with M76 (Figure 6C).
We first performed FP measurements in salt-free Tris pH 8 buffer (Figure 8A). We measured binding curves using 200 nM of fluorescent peptides.
(§1) Fluorescence polarization measurements were carried out on a Paradigm Detection Platform (Beckman Coulter, Brea, CA, USA) operating with a microplate reader, a fluorescein detection cartridge (excitation range 485/20 nm, emission range 535/25 nm for both parallel and perpendicular components) and the SpectraMax Pro 6.1 software (Molecular Devices, San Jose, CA, USA). Samples were placed in polystyrene black flat bottom 96-well microplates (Cellstar, Greiner bio-one, Frickenhausen, Germany) with 20 µL final volume in each well. If not stated otherwise, the final concentration of fluorescent ligands was 200 nM. The buffer was either 20 mM MES pH 6.5, salt-free or with 250 mM NaCl, or 20 mM Tris pH 8.0 salt-free or with 100 mM NaCl, supplemented with 0.01% Brij-35. Mixing was done using the corresponding plate reader option. The temperature was set to 20 °C. Data were recorded in top reading mode. Measurements were done in triplicate and after an incubation time of 30 min, if not indicated otherwise. Fluorescence polarization (FP) in mFP units was determined from the parallel (I∥) and perpendicular (I⊥) components of the emitted light according to Equation (4). A grating factor G of 1.2 was determined using 1 nM fluorescein in 1 mM NaOH and assuming a theoretical FP of 27 mFP [48]. Background signal was measured from wells containing only buffer, and the mean value was subtracted from each I∥ and I⊥ component. (4) FP (mP)=1000×(I∥−G∗I⊥)/(I∥+G×I⊥)
We assumed that the measured fluorescence polarization FP is a linear combination of the FP of the fluorescent probe in the absence of N protein (FPmin) and the FP of N-bound fluorescent probe (FPmax), weighted by the molar fraction. The molar fraction x = [P]bound/[P]0 can then be expressed as a ratio of FP differences (Equation (8)). (8) x=(FP−FPmin)/(FPmax−FPmin)=∆FP/∆FPmax
To determine the Kd value of a complex between a fluorescent probe and N protein, a series of samples with constant probe concentration and varying N concentration was measured. FP binding curves were fitted with a single binding site model and a 1:1 stoichiometry.

RSV N-RNA complex [2] = target: T1, RSV N-RNA complex; test: Fluorescence polarization inhibition of N-RNA binding to fluorescent probes; conditions: probe BCN8E 200 nM
From the text: We next performed inhibition experiments for the F11-(N-RNA) complex by M76 (Figure 4B). FP values decreased with increasing competitor concentration. At saturation, FP nearly reached the value of free F11, showing that the F11 peptide could be nearly completely displaced. Since the same concentration range was used for NNTD and N-RNA, poor solubility of M76 can be ruled out to explain the saturation observed before complete displacement of F11 in the presence NNTD (Figure 3C). This reinforces the hypothesis of a second binding site on NNTD, outside the canonical P-binding site. […]
To probe the potency of M76 as an inhibitor, we carried out competition experiments with the M76 molecule and several BCNn peptides. M76 was able to displace the fluorescent probes from N-RNA, and inhibition curves were obtained (Figure 8E). Since we used different N concentrations to have similar dynamic ranges of FP for the series of fluorescent peptides, we cannot directly compare M76 IC50s. However, Kis may be compared.
as §1
To assess inhibition of a complex between a fluorescent probe and N protein by peptides or the M76 molecule, the concentration of N was set to work with an FP range comprised between FPmin and ~80% FPmax. Peptides were added from 1 or 2 mM stock solution in water at neutral pH. M76 was added from 10 or 20 mM stock solutions in ethanol or in DMSO. […] Inhibition data were fitted with Origin 7, and in parallel with the Excel solver module. All data were compatible with an absence of cooperativity. FPmax and FPmin were fitted, and the maximal inhibition %i,max was set to 100%. (11) %i=100×[1−(FP−FPmin)/(FPmax−FPmin)] (12) %i=%i,max×[inhibitor]/[inhibitor]+IC50
Inhibition constants Ki were calculated on the IC50-to-Ki converter for a protein-ligand-inhibitor system (https://bioinfo-abcc.ncifcrf.gov/IC50_Ki_Converter/index.php, accessed on 24 August 2022), assuming a competitive mechanism (Equation (13)). This tool takes into account the free concentrations of protein and ligand. (13) Ki=(IC50−[protein]/2)/([peptide]/Kd+1)

[3] = target: T2, RSV N-RNA complex (full-length N protein in ring-shaped complexes with bacterial RNA) (human respiratory syncytial virus, UniProt P03418 1-391); test: fluorescence polarisation; 200 nM dicyano BODIPY FL-labelled BCNn peptide, N-RNA varied; 20 mM Tris pH 8.0 without salt, 0.01% Brij-35; 20 °C; single site model; conditions: both partners purified
T2 construct: human RSV nucleoprotein N, full length; concentrations are of N protomer; also called N-RNA rings; source: in lysate for the co-purification; purified (glutathione-Sepharose, thrombin, Superdex 200) as N-RNA complex; copies: 10-11
T2 sequence (looked up): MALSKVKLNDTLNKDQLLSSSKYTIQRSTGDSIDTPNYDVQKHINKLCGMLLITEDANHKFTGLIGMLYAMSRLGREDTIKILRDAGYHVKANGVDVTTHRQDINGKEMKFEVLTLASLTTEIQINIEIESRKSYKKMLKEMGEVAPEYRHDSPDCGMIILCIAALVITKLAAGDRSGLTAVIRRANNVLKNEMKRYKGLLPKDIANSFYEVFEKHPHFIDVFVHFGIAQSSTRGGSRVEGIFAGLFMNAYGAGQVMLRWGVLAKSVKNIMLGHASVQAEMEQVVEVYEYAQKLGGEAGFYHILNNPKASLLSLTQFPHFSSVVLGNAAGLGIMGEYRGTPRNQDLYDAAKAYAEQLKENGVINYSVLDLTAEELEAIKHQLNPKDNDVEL

[4] = target: T2, RSV N-RNA complex (full-length N …); test: fluorescence polarisation; 200 nM FTU-labelled Fn peptide, N-RNA varied (up to 40 µM N); 20 mM Tris pH 8.0 without salt, 0.01% Brij-35; 20 °C; 30 min incubation; single site model, or with a linear contribution where marked (*); conditions: both partners purified
[5] = target: T2, RSV N-RNA complex (full-length N …); test: fluorescence polarisation; 200 nM dicyano BODIPY FL-labelled BCNn peptide, N-RNA varied; 20 mM Tris pH 8.0 with 100 mM NaCl, 0.01% Brij-35; 20 °C; single site model; conditions: both partners purified
[6] = target: T2, RSV N-RNA complex (full-length N …); test: fluorescence polarisation; competition: unlabeled P peptide varied against 200 nM F11 on 10 µM N-RNA; Tris pH 8 without salt; Hill equation; Ki from the IC50-to-Ki server; conditions: both partners purified
[7] = BCNn peptides 200 nM, Tris pH 8.0, no salt, single site model

For Cc1cc(C)n2c1C=C1C=CC(CCC(=O)N[C@@H](CC(N)=O)C(=O)N[C@@H](CC(=O)O)C(=O)N[C@@H](CC(C)C)C(=O)N[C@@H](CCC(=O)O)C(=O)N[C@@H](CC(C)C)C(=O)N[C@@H](CCC(=O)O)C(=O)N[C@@H](CC(=O)O)C(=O)N[C@@H](Cc3ccccc3)C(=O)O)=[N+]1[B-]2(C#N)C#N [BCN8E] (X1-NDLELEDF-OH), the “decrease of affinity in salty buffer versus salt-free buffer” value (RSV N-RNA complex [1]; 100 mM NaCl vs no salt, Tris pH 8) was 5 fold, the Kd (RSV N-RNA complex [1]; [7]) was 1.4 µM and the ΔFPmax (RSV N-RNA complex [1]; [7]) was 298 ± 5 mFP. The ΔFPmax (RSV N-RNA complex [1]; BCNn peptides 200 nM, Tris pH 8.0, with salt (100 mM NaCl), (*) saturation not reached) was 284 ± 15 (*) mFP, the “Fitted FPmax” value (RSV N-RNA complex [2]; inhibitor M76, [N-RNA] 2 µM) was 166 mFP and the “Fitted FPmax” value (RSV N-RNA complex [2]; inhibitor M76, [N-RNA] 5 µM) was 196 mFP.

B1: BCN9E (dicyano BODIPY FL-labelled RSV P 9-mer, Ser237Glu) (peptide)
peptide: {dicyano BODIPY FL}-DNDLELEDF
notes: C-terminal 9 residues of RSV phosphoprotein P with a phosphomimetic glutamate at 237; also called B9E; source: synthetic peptide (Fmoc/tBu solid phase, dicyano BODIPY FL coupled on resin, RP-HPLC purified)
For B1, the Kd [3] was 0.96 ± 0.13 µM.

B2: F5E (FTU-labelled RSV P 5-mer, Ser237Glu) (peptide)
peptide: {FITC}-ELEDF
notes: C-terminal 5 residues of RSV phosphoprotein P with a phosphomimetic glutamate at 237; source: synthetic peptide (Fmoc/tBu solid phase), FITC coupled in solution, HPLC purified
Molecule B2 has a Kd [4] of 5.9 ± 0.5 µM.

B3: BCN_(11SE) (dicyano BODIPY FL-labelled RSV P 11-mer, Ser237Glu) (peptide)
peptide: {dicyano BODIPY FL}-DSDNDLELEDF
notes: C-terminal 11 residues of RSV phosphoprotein P with a phosphomimetic glutamate at 237; source: synthetic peptide (Fmoc/tBu solid phase, dicyano BODIPY FL coupled on resin, RP-HPLC purified)
B3 was tested, and the Kd [3] was 0.82 ± 0.22 µM and the Kd [5] was 0.55 ± 0.07 µM.

B4: P9E (unlabeled RSV P 9-mer, Ser237Glu) (peptide)
peptide: DNDLELEDF
notes: unlabeled peptide from which F9E was made; C-terminal 9 residues of RSV phosphoprotein P; source: synthetic peptide (Fmoc/tBu solid phase, RP-HPLC purified)
In the case of B4, the IC50 [6] is reported as 66 ± 6 µM and the Ki [6] is reported as 25 µM.

B5: BCN8E (dicyano BODIPY FL-labelled RSV P 8-mer, Ser237Glu) (peptide)
peptide: {dicyano BODIPY FL}-NDLELEDF
notes: C-terminal 8 residues of RSV phosphoprotein P with a phosphomimetic glutamate at 237; also called B8E; source: synthetic peptide (Fmoc/tBu solid phase, dicyano BODIPY FL coupled on resin, RP-HPLC purified)
For B5, the Kd [3] was 1.43 ± 0.08 µM and the Kd [5] was 7.1 ± 0.1 µM.

B6: F_(11SE) (FTU-labelled RSV P 11-mer, Ser237Glu) (peptide)
peptide: {FITC}-DSDNDLELEDF
notes: C-terminal 11 residues of RSV phosphoprotein P with a phosphomimetic glutamate at 237; source: synthetic peptide (Fmoc/tBu solid phase), FITC coupled in solution, HPLC purified
Molecule B6 has a Kd [4] of 0.87 ± 0.26 µM.
